In patent US20230051715A1 (MABWELL THERAPEUTICS, published 2023):

Key:
[1] = target: T1, human C1s deletion mutant 1 (M151) (human) (UniProt P09871); experiment: ELISA, plate coated with 200 ng/well HuC1s(M151), OD450nm
T1 sequence: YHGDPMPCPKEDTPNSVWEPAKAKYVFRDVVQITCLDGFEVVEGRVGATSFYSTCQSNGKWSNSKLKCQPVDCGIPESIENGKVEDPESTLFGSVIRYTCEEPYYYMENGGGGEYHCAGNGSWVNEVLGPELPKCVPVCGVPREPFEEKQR

[2] = target: T2, full-length human C1s (produced in house) (human, UniProt P09871 16-688); experiment: ELISA, plate coated with 200 ng/well full-length HuC1s, OD450nm
T2 construct: Called full-length; Partly auto-cleaved at R422-I423 on blots; also called HuC1s; Hu C1s
T2 sequence: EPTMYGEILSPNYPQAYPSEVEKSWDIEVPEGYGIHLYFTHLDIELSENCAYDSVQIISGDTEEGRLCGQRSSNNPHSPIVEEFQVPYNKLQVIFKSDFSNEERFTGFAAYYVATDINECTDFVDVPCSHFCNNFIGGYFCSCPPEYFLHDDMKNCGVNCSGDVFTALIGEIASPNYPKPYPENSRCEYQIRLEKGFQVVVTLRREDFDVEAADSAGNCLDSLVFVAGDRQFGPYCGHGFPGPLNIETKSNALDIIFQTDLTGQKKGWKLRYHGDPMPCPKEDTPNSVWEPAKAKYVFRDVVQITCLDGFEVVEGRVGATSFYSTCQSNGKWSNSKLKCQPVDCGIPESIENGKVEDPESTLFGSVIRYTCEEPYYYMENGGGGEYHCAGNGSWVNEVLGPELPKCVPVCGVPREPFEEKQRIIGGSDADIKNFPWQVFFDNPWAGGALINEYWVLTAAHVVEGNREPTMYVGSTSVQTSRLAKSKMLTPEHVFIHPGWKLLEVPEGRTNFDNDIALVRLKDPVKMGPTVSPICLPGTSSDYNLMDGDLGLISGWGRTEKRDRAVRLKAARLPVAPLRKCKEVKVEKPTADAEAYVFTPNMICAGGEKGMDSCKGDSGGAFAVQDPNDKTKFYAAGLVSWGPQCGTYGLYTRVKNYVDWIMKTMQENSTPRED
Method: (§1) ELISA was carried out by first coating 96-well plates with 200 ng/well of full-length or truncated C1s proteins overnight. The next morning, plates were blocked with SuperBlock T20 blocking buffer (Thermo Scientific 37536) for 1 h with gentle shaking. Then, various concentrations of anti-C1s antibodies diluted in SuperBlock T20 blocking buffer were added to the plates and incubated for 1 h with gentle shaking. Mouse IgG (Sigma-Aldrich 15381) and human IgG1 (BioXCell BP0297) were used as negative controls. The plates were washed before incubating with HRP conjugated secondary antibodies diluted in SuperBlock T20 blocking buffer (goat anti-mouse IgG (H+L) cross-adsorbed secondary antibody HRP (Invitrogen G-21040) or goat anti-human IgG antibody, HRP conjugate (Millipore AP309P)) for 1 h with gentle shaking. At last, the plates were washed and color developed with ELISA liquid HRP substrate (Sigma-Aldrich), followed by stopping the reaction with addition of 1M H₂SO₄ in the same volume as the ELISA liquid substrate. Bound antibody was measured by absorbance at OD₄₅₀ₙₘ.

[3] = target: T3, human C1s deletion mutant 2 (NHC) (human, UniProt P09871 16-437); experiment: ELISA, plate coated with 200 ng/well HuC1s(NHC), OD450nm
T3 construct: C-terminal 6xHis tag; also called HuC1s(NHC); huC1sNHC
T3 sequence: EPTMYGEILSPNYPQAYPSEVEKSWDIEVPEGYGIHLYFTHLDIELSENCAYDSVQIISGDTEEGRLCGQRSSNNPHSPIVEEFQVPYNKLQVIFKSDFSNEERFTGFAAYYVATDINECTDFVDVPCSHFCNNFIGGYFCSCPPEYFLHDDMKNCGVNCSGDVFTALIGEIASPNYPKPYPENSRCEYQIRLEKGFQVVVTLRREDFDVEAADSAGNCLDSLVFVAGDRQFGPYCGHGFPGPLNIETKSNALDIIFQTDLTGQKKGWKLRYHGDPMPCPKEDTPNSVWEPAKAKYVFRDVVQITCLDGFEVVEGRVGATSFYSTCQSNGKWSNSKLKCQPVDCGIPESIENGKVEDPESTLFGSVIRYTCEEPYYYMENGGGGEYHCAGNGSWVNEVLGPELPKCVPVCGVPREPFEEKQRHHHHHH
Method: as §1

[4] = target: T4, C1s in normal human serum (NHS, CompTech NHS) (human, UniProt P09871 16-688); experiment: cell-based or functional assay
T4 sequence (looked up): T2 sequence

[5] = target: T5, C1s in normal cynomolgus monkey serum (CMS, CompTech NCYS) (cynomolgus monkey, UniProt A0A2K5VQX9 16-685); experiment: cell-based or functional assay
T5 sequence: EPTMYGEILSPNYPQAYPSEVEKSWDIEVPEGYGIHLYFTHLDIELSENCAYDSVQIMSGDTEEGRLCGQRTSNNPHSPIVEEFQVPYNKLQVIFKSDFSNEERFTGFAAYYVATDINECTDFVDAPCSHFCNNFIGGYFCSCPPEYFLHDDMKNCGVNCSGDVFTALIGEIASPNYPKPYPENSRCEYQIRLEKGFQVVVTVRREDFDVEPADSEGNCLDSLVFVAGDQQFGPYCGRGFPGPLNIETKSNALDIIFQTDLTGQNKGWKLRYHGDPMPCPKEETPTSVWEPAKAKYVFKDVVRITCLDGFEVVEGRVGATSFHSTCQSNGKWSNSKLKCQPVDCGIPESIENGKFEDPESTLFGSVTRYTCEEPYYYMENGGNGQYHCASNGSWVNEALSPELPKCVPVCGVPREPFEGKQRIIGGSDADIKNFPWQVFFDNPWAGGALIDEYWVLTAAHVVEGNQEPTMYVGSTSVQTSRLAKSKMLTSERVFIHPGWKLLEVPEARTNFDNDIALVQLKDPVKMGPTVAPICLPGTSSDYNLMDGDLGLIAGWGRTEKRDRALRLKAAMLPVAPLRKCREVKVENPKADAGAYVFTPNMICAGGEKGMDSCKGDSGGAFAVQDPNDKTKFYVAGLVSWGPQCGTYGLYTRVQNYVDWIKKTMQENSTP

[6] = target: T6, full-length mouse C1s (produced in house) (mouse, UniProt Q8CG14 16-688); experiment: ELISA, plate coated with 200 ng/well full-length MoC1s, OD450nm
T6 construct: Called full-length; also called MoC1s; moC1s
T6 sequence: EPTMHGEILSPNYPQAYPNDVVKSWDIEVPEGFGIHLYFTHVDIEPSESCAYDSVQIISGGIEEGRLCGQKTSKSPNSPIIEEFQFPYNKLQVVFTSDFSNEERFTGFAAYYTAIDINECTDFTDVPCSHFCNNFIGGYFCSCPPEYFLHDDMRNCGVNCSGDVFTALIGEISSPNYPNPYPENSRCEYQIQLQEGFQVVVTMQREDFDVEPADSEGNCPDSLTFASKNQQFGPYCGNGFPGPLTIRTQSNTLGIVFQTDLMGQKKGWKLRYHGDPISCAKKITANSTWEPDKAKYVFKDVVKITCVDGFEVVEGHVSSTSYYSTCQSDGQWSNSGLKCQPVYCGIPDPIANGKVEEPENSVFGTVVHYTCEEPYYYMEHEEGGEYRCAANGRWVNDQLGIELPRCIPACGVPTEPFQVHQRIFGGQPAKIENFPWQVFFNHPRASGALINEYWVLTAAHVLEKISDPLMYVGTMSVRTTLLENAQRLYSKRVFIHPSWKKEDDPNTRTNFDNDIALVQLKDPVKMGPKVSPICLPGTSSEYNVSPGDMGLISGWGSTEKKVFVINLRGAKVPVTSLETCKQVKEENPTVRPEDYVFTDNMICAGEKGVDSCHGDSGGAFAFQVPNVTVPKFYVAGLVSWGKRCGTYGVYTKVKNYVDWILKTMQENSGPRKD
Method: as §1

- EC50 [1]: 0.003 µg/mL
- EC50 [2]: 0.002 µg/mL
- EC50 [3]: 0.003 µg/mL
- IC50, inhibition of IgM-induced C4 deposition from NHS [4]: 0.2 µg/mL
- IC50, inhibition of IgM-induced C4 deposition from CMS [5]: 0.2 µg/mL
- IC50, inhibition of cynomolgus monkey complement-mediated lysis of EA [5]: 0.1 µg/mL
- binding result [6]: no binding (tested: 1000 ng/ml (Log 3))
B1: Anti-C1s antibody hz2-8(H1L2) (antibody, V domains shown)
VH: QVQLVQSGAEVKKPGASVKVSCKASGFNIKEYYMHWVRQAPEQGLEWMGWIDPENGDTIYAQKFQGRVTITADTSTNTAYMELSSLRSEDTAVYYCARSRLFFAYWGQGTLVTVSS
VL: DIQMTQSPKSLSASVGDRVTITCRASQDVRTALDWYQQKPGQSPKLLIYSASYRYSGVPSRFSGSGSGTDFTLTISSLQPEDFATYYCQQQYTTPYTFGQGTKLEIKR
notes: Humanized, human IgG1 / kappa
- IC50, inhibition of human complement-mediated lysis of antibody-sensitized sheep erythrocytes (EA) [4]: 0.2 µg/mL
